Numbering of substitutions follows the chain as printed. Like-named read-outs stand apart in the source and are kept apart here.
How the values were obtained:
[1] = target: T1, Macaca mulatta TF on RF/6A cells (Macaca mulatta (protein sequence stated …, UniProt P13726 33-294 (human entry))); assay: flow cytometry, IgG1 titrated on TF-positive Macaca mulatta RF/6A cells, 4-parameter fit
T1 construct: Endogenous TF of the RF/6A cell line; also called TF-positive Macaca mulatta RF/6A cells; cynomolgus TF
T1 chain: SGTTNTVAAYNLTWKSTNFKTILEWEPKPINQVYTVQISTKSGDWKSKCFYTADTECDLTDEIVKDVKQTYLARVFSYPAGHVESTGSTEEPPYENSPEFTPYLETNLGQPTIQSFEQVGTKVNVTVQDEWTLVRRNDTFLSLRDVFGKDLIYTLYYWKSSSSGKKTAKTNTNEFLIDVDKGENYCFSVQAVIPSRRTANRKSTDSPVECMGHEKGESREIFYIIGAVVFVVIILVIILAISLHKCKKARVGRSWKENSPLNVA
Protocol: (§1) After 2 washes, dead cells were labeled with TO-PRO-3 Iodide (ThermoFisher Scientific) and samples were analyzed on a CytoFLEX flow cytometer (Beckman Coulter, Brea, CA, USA) or Novocyte flow cytometer (ACEA Biosciences, San Diego, CA, USA). The median fluorescence intensities (MFIs) at each dilution were plotted and cell EC₅₀'s were derived using a 4-parameter binding model in Prism (GraphPad, La Jolla, CA, USA).

E. coli-derived TF = target: T2, E. coli-derived TF (human (Example 17 does not restate the …, UniProt P13726 33-251)); assay: protein ELISA, plate coated with E. coli-derived TF-His, antibody titrated, HRP secondary, luminescence
T2 construct: also called E. coli-derived TF-His; E. coli-derived TF protein
Protocol: (§2) Plates coated with Expi293- or E. coli-derived TF-His were incubated with increasing concentrations of antibodies.

Expi293-derived TF-His = target: T3, Expi293-derived TF-His (human (Example 17 does not restate the …, UniProt P13726 33-251)); assay: protein ELISA, plate coated with Expi293-derived TF-His, antibody titrated, HRP secondary, luminescence
T3 construct: Glycosylated TF ECD-His6 from Expi293 cells; also called Expi293-derived TF protein; TF ECD-His6
Protocol: as §2

Relipidated TF [2] = target: T4, Relipidated TF (UniProt P13726 33-295, limits assumed); assay: cell-based or functional assay
Relipidated TF [3] = target: T4, Relipidated TF; assay: cell-based or functional assay; remark: listed apart in the source
[4] = target: T5, full-length mouse TF with a C-terminal FLAG tag on Flp-In-CHO cells (mouse, UniProt P20352 29-294); assay: flow cytometry on CHO cells expressing mouse TF, MFI at 250 nM antibody
T5 construct: also called CHO-mTF; mouse TF-positive CHO cells
Protocol: as §1

[5] = target: T6, cynomolgus monkey TF ECD-His6 (cynomolgus monkey (Macaca fascicularis)); assay: SPR (Biacore), TF-His over coupled antibody
T6 construct: Expi293-derived; also called TF-His; cTF
T6 chain: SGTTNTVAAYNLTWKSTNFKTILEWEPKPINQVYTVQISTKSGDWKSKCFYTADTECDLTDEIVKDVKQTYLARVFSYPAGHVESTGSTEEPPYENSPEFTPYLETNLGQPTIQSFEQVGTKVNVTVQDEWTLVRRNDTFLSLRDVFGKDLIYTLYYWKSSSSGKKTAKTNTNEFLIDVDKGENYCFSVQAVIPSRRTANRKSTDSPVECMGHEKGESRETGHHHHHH
Protocol: (§3) Kinetic measurements for the anti-TF antibodies were conducted on an Octet QK384 (Pall ForteBio, Fremont, CA, USA) or a Biacore (GE Healthcare Bio-Sciences).
(§4) For the Biacore-based measurements, the antibody was covalently coupled to a CM5 or C1 chip using an amine-coupling kit (GE Healthcare Bio-Sciences). Association between the anti-TF antibodies and a five-point three-fold titration of TF-His starting at 25 to 500 nM was measured for 300 sec. Subsequently, dissociation between the anti-TF antibody and TF-His was measured for up to 1800 sec. Kinetic data was analyzed and fitted globally using a 1:1 binding model.

human TF ECD-His6 [6] = target: T7, human TF ECD-His6 (human, UniProt P13726 33-251); assay: SPR (Biacore), TF-His over coupled antibody
T7 construct: Expi293-derived; Biacore used TF-His; also called TF-His; hTF
Protocol: as §3, §4

mouse TF ECD-His6 = target: T8, mouse TF ECD-His6 (mouse, UniProt P20352 29-251); assay: BLI (ForteBio Octet)
T8 construct: Expi293-derived; also called TF-His; mTF
Protocol: as §3
(§5) Briefly, ForteBio affinity measurements were performed by loading IgGs on-line onto AHC sensors. Sensors were equilibrated off-line in assay buffer for 30 min and then monitored on-line for 60 seconds for baseline establishment. Sensors with loaded IgGs were exposed to 100 nM antigen (human, cynomolgus, or mouse TF) for 3 min, afterwards they were transferred to assay buffer for 3 min for off-rate measurement. Alternatively, binding measurements were obtained by loading biotinylated TF monomer on SA sensors followed by exposure to 100 nM antibody Fab in solution. Kinetic data was analyzed and fitted using a 1:1 Langmuir binding model and the KD was calculated by dividing the koff by the kₒₙ.

human TF ECD-His6 [7] = target: T7, human TF ECD-His6; assay: BLI (ForteBio Octet)
Protocol: as §3, §5

[8] = target: T5, full-length mouse TF with a C-terminal …; assay: flow cytometry, antibody titration on CHO cells expressing mouse TF, 4-parameter fit of MFI
Protocol: as §1

[9] = target: T9, human Tissue Factor on human TF-positive cells (human, UniProt P13726 33-295); assay: flow cytometry, antibody titration on HCT-116 cells (endogenous human TF), 4-parameter fit of MFI
T9 construct: also called hTF; CD142
Protocol: as §1

[10] = target: T6, cynomolgus monkey TF ECD-His6; assay: BLI (ForteBio Octet)
Protocol: as §3, §5

[11] = target: T9, human Tissue Factor on human …; assay: flow cytometry, antibody titration on HCT-116 cells (endogenous human TF), 4-parameter fit of MFI; remark: listed apart in the source
Protocol: as §1

[12] = target: T5, full-length mouse TF with a C-terminal …; assay: flow cytometry on CHO cells expressing mouse TF, MFI at 250 nM antibody; remark: listed apart in the source
Protocol: as §1

[13] = target: T5, full-length mouse TF with a C-terminal …; assay: flow cytometry, antibody titration on CHO cells expressing mouse TF, 4-parameter fit of MFI; remark: listed apart in the source
Protocol: as §1

B1: 54E (antibody, human IgG1, V domains shown)
VH: QVQLVQSGAEVKKPGASVKVSCKASGYTFANYYMHWVRQAPGQGLEWMGIINPSGGITVYAQKFQGRVTMTRDTSTSTVYMELSSLRSEDTAVYYCARGGSKVAALAFDIWGQGTMVTVSS
VL: DIQMTQSPSSLSASVGDRVTITCQASQDISNSLNWYQQKPGKAPKLLIYDASNLETGVPSRFSGSRSGTDFTFTISSLQPEDIATYYCQQYNFHPLTFGGGTKVEIK
notes: Human IgG1; also called antibody designated 54E
- EC50 [1]: 1.28 nM
- EC50 (E. coli-derived TF): 0.38 nM
- EC50 (Expi293-derived TF-His): 0.96 nM

B2: 39A (antibody, human IgG1, V domains shown)
VH: QVQLVQSGAEVKKPGSSVKVSCKASGGTFSSNAIGWVRQAPGQGLEWMGSIIPIIGFANYAQKFQGRVTITADESTSTAYMELSSLRSEDTAVYYCARDSGYYYGASSFGMDVWGQGTTVTVSS
VL: EIVMTQSPATLSVSPGERATLSCRASQSVSSNLAWYQQKPGQAPRLLIYGASTRATGIPARFSGSGSGTEFTLTISSLQSEDFAVYYCEQYNNLPLTFGGGTKVEIK
notes: Human IgG1; also called antibody designated 39A
- EC50 [1]: 0.27 nM
- EC50 (E. coli-derived TF): 0.34 nM
- % Peak IIa at 10 nM Ab (TGA with 10 min antibody pre-incubation) (Relipidated TF [2]): 11%
- % Peak IIa at 50 nM Ab (TGA with 10 min antibody pre-incubation) (Relipidated TF [2]): 8%
- % Peak IIa at 100 nM Ab (TGA with 10 min antibody pre-incubation) (Relipidated TF [2]): 6%
- Lag Time at 10 nM Ab (TGA with 10 min antibody pre-incubation) (Relipidated TF [2]): 20.9 min
- Lag Time at 50 nM Ab (TGA with 10 min antibody pre-incubation) (Relipidated TF [2]): 29 min
- Lag Time at 100 nM Ab (TGA with 10 min antibody pre-incubation) (Relipidated TF [2]): 32.1 min
- Peak IIa at 10 nM Ab (TGA with 10 min antibody pre-incubation) (Relipidated TF [2]): 30 nM
- Peak IIa at 50 nM Ab (TGA with 10 min antibody pre-incubation) (Relipidated TF [2]): 21 nM
- Peak IIa at 100 nM Ab (TGA with 10 min antibody pre-incubation) (Relipidated TF [2]): 17 nM
- ttPeak at 10 nM Ab (TGA with 10 min antibody pre-incubation) (Relipidated TF [2]): 30.8 min
- ttPeak at 50 nM Ab (TGA with 10 min antibody pre-incubation) (Relipidated TF [2]): 39.7 min
- ttPeak at 100 nM Ab (TGA with 10 min antibody pre-incubation) (Relipidated TF [2]): 43.2 min
- EC50 (Expi293-derived TF-His): 0.45 nM
- % ETP at 10 nM Ab (TGA without antibody pre-incubation) (Relipidated TF [3]): 58%
- % Peak IIa at 10 nM Ab (TGA without antibody pre-incubation) (Relipidated TF [3]): 24%
- % Peak IIa at 50 nM Ab (TGA without antibody pre-incubation) (Relipidated TF [3]): 8%
- % Peak IIa at 100 nM Ab (TGA without antibody pre-incubation) (Relipidated TF [3]): 6%
- ETP at 10 nM Ab (TGA without antibody pre-incubation) (Relipidated TF [3]): 1330 nM·min
- Lag Time at 10 nM Ab (TGA without antibody pre-incubation) (Relipidated TF [3]): 12.4 min
- Lag Time at 50 nM Ab (TGA without antibody pre-incubation) (Relipidated TF [3]): 33.1 min
- Lag Time at 100 nM Ab (TGA without antibody pre-incubation) (Relipidated TF [3]): 38.1 min
- Peak IIa at 10 nM Ab (TGA without antibody pre-incubation) (Relipidated TF [3]): 84 nM
- Peak IIa at 50 nM Ab (TGA without antibody pre-incubation) (Relipidated TF [3]): 29 nM
- Peak IIa at 100 nM Ab (TGA without antibody pre-incubation) (Relipidated TF [3]): 22 nM
- ttPeak at 10 nM Ab (TGA without antibody pre-incubation) (Relipidated TF [3]): 20.7 min
- ttPeak at 50 nM Ab (TGA without antibody pre-incubation) (Relipidated TF [3]): 43.2 min
- ttPeak at 100 nM Ab (TGA without antibody pre-incubation) (Relipidated TF [3]): 48.3 min

B3: 29E (antibody, human IgG1, V domains shown)
VH: QVQLVESGGGVVQPGRSLRLSCAASGFTFRSYGMHWVRQAPGKGLEWVAVITYDGINKYYADSVEGRFTISRDNSKNTLYLQMNSLRAEDTAVYYCARDGVYYGVYDYWGQGTLVTVSS
VL: not shown
notes: Human IgG1; also called antibody designated 29E
- EC50 [1]: 0.53 nM
- EC50 (E. coli-derived TF): 0.68 nM
- EC50 (Expi293-derived TF-His): 0.98 nM

B4: 25A5 (antibody, human IgG1, V domains shown)
VH: QVQLVQSGAEVKKPGASVKVSCKASGYTFDVYGISWVRQAPGQGLEWMGWIAPYSGNTNYAQKLQGRVTMTTDTSTSTAYMELRSLRSDDTAVYYCARDAGTYSPFGYGMDVWGQGTTVTVSS
VL: DIQMTQSPSTLSASVGDRVTITCRASESISNWLAWYQQKPGKAPKLLIYKAYSLEYGVPSRFSGSGSGTEFTLTISSLQPDDFATYYCQQFQKLPPFTFGGGTKVEIK
notes: Human IgG1; also called antibody designated 25A5
- MFI at 250 nM [4]: 8e+06
- Kd [5]: 0.04 nM
- Kd (human TF ECD-His6 [6]): 0.08 nM
- Kd (mouse TF ECD-His6): 188 nM
- Kd (human TF ECD-His6 [7]): 0.64 nM
- EC50 [8]: 11 nM
- EC50 [9]: 0.088 nM

B5: 25A (antibody, human IgG1, V domains shown)
VH: B4 VH with S55N
VL: B4 VL with E27Q, N31S, Y52S, Y56S, K93S
notes: Human IgG1; also called antibody designated 25A
- EC50 [1]: 0.43 nM
- EC50 (E. coli-derived TF): 0.35 nM
- EC50 (Expi293-derived TF-His): 0.54 nM

B6: 25G1 (antibody, human IgG1, V domains shown)
VH: B4 VH with D30R, V31S, I51V, F106Y
VL: B4 VL with E27H, S30D, N31S, Y52S, S53Y, Y56S, Q90L, K93S
notes: Human IgG1; also called antibody designated 25G1
- EC50 [1]: 0.27 nM
- EC50 (E. coli-derived TF): 0.31 nM
- EC50 (Expi293-derived TF-His): 0.42 nM

B7: 25A3 (antibody, human IgG1, V domains shown)
VH: B4 VH
VL: B4 VL with R24Q, E27Q, S30N, S53N, Y56S, Q90L, K93S
notes: Human IgG1; also called antibody designated 25A3
- EC50 [1]: 0.27 nM
- EC50 (E. coli-derived TF): 0.36 nM
- EC50 (Expi293-derived TF-His): 0.47 nM

B8: 25G (antibody, human IgG1, V domains shown)
VH: B4 VH with D30R, V31S, I51V, S55N, F106Y
VL: B4 VL with E27Q, N31S, Y52S, Y56S, K93S
notes: Human IgG1; also called antibody designated 25G
- MFI at 250 nM [4]: 1.6e+07
- Kd [5]: 18 nM
- Kd (human TF ECD-His6 [6]): 23 nM
- Kd (mouse TF ECD-His6): 114 nM
- Kd [10]: 17.5 nM
- Kd (human TF ECD-His6 [7]): 21.9 nM
- EC50 [8]: 3.9 nM
- EC50 [9]: 0.134 nM

B9: 43B (antibody, human IgG1, V domains shown)
VH: QVQLQESGPGLVKPSQTLSLTCTVSGGSISSGQYWSWIRQHPGKGLEWIGEIYYSGSTRYNPSLKSRVTISVDTSKNQFSLKLSSVTAADTAVYYCARDAPYYYGGGYYYYMDVWGKGTTVTVSS
VL: EIVLTQSPGTLSLSPGERATLSCRASQSVSSSYLAWYQQKPGQAPRLLIYGASSRATGIPDRFSGSGSGTDFTLTISRLEPEDFAVYYCQQVGVVPYTFGGGTKVEIK
notes: Human IgG1; also called antibody designated 43B
- Kd [5]: 5.64 nM
- Kd (human TF ECD-His6 [6]): 1.75 nM
- Kd (mouse TF ECD-His6): 161 nM
- Kd [10]: 3.4 nM
- Kd (human TF ECD-His6 [7]): 2.4 nM
- EC50 [11]: 0.559 nM

B10: 43D (antibody, human IgG1, V domains shown)
VH: QVQLQQWGAGLLKPSETLSLTCAVYGGSLSGYYWSWIRQPPGKGLEWIGEIGASGSTRYNPSLKSRVTISVDTSKNQFSLKLSSVTAADTAVYYCARDTPYYYEGGYYYYMDVWGKGTTVTVSS
VL: B9 VL
notes: Human IgG1; also called antibody designated 43D
- Kd [5]: 5.66 nM
- Kd (human TF ECD-His6 [6]): 2.09 nM
- Kd (mouse TF ECD-His6): 281 nM
- Kd [10]: 4.12 nM
- Kd (human TF ECD-His6 [7]): 3.84 nM
- MFI at 250 nM [12]: 1.3e+07
- EC50 [13]: 2.9 nM
- EC50 [11]: 0.147 nM

B11: 43B1 (antibody, human IgG1, V domains shown)
VH: B9 VH
VL: B9 VL with Q27E, S30D, S54T, A56Q, V92A
notes: Human IgG1; also called antibody designated 43B1
- Kd (mouse TF ECD-His6): 72.1 nM
- MFI at 250 nM [12]: 5.3e+06
- EC50 [13]: 255 nM

B12: 43B7 (antibody, human IgG1, V domains shown)
VH: B9 VH
VL: B9 VL with Q27E, S30D, S53D, V92D
notes: Human IgG1; also called antibody designated 43B7
- Kd [5]: 0.24 nM
- Kd (human TF ECD-His6 [6]): 0.14 nM
- Kd (mouse TF ECD-His6): 360 nM
- Kd [10]: 0.94 nM
- Kd (human TF ECD-His6 [7]): 0.86 nM
- MFI at 250 nM [12]: 800000
- EC50 [11]: 0.255 nM

From patent US20250361322A1 (ICONIC THERAPEUTICS, published 2025)
